Measurements published in patent US7101851 (dated 2006).
Bridges are numbered along the chain shown (N, C = ends). Where no end group is shown, it is not given here. [ ]: non-standard residue; d: D form. Pip = O=C(O)[C@@H]1CCCCN1; dPip = O=C(O)[C@H]1CCCCN1; hCys = N[C@@H](CCS)C(=O)O; NMeA = CN[C@@H](C)C(=O)O

Molecular target: T1, alpha subunit of the human FcεRI receptor (IgE high affinity receptor), expressed on Chinese hamster ovary … (human, UniProt P12319 26-257)
T1 construct: whole, on cells; also called CHO FcεRI+ cells; FcεRIα
T1 sequence (looked up): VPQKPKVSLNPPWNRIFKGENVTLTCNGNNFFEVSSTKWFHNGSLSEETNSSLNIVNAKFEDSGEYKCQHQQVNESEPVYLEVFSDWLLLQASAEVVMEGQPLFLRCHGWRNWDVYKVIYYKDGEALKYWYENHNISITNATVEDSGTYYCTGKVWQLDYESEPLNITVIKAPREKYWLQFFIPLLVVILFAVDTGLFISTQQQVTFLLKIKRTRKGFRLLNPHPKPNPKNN
Experiment: inhibition of 125I-IgE binding to CHO cells expressing human FcεRI alpha; competitor IgE
Method: To determine the ability of peptides to inhibit IgE binding to FcεRI, a cell-based binding assay was used with radiolabeled IgE. Chinese hamster ovary cells expressing the alpha subunit of the human FcεRI receptor were cultured overnight in Falcon 96 well microtiter plates at a concentration of 5 ×10^4 cells per well. The following day the cells were rinsed three times with PBS and then once with F12/DMEM. Peptide stocks were reconstituted in 100 mM Hepes buffered water, pH 7.2, at a concentration of 5 mg/mL. Working concentrations of the peptide were diluted in assay buffer (see below). 75 uL of a desired concentration of peptide was added to the top row of a separate 96 well microtiter plate and serially diluted 1:3 in 50 uL of the assay buffer (F12/DMEM, 1% BSA, 0.05% NaN_3 and 0.025 mM Hepes pH 7.2). Starting concentrations ranged from 50–500 uM. Next, 50 uL of the diluted peptide was transferred to the 96 microtiter well plate containing a monolayer of CHO FcεRI+ cells. […] Cells were […]

Binder | IC50
VQCPHFCYFGGAELCPDV[hCys]YV-NH2 (disulfide (positions not given here)) [IGE165] | 1.17 µM
VQC[Pip]HFCYFGGAELCPDVCYV-NH2 (disulfide 7-15, 3-19) [IGE162-2] | 0.43 µM
VQCPHFCYFGGAELC[NMeA]DVCYV-NH2 (disulfide 7-15, 3-19; N-terminus assumed; SMILES CC(C)C[C@@H]1NC(=O)[C@H](CCC(=O)O)NC(=O)[C@H](C)NC(=O)CNC(=O)CNC(=O)[C@H](Cc2ccccc2)NC(=O)[C@H](Cc2ccc(O)cc2)NC(=O)[C@@H]2CSSC[C@H](NC1=O)C(=O)N(C)[C@@H](C)C(=O)N[C@@H](CC(=O)O)C(=O)N[C@@H](C(C)C)C(=O)N[C@H](C(=O)N[C@@H](Cc1ccc(O)cc1)C(=O)N[C@H](C(N)=O)C(C)C)CSSC[C@H](NC(=O)[C@H](CCC(N)=O)NC(=O)[C@@H](N)C(C)C)C(=O)N1CCC[C@H]1C(=O)N[C@@H](Cc1c[nH]cn1)C(=O)N[C@@H](Cc1ccccc1)C(=O)N2) [IGE158] | 1.08 µM
CPHFCYELDYELCPDVCY-NH2 (not fully specified (bridges); cysteine pairing not given here) [IGE155] | 0.069 µM
VQCPHFCYFGGAELC[dPip]DVCYV-NH2 (disulfide 7-15, 3-19) [IGE161-1] | 41.1 µM
VQCPHFCYFGGAELC[Pip]DVCYV-NH2 (disulfide 7-15, 3-19) [IGE161-2] | 0.68 µM
Ac-VQCPHFCYELDYELCPDVCYV-NH2 (not fully specified (bridges); cysteine pairing not given here) [IGE179] | 0.22 µM
VQC[NMeA]HFCYFGGAELCPDVCYV-NH2 (disulfide 7-15, 3-19; N-terminus assumed; SMILES CC(C)C[C@@H]1NC(=O)[C@H](CCC(=O)O)NC(=O)[C@H](C)NC(=O)CNC(=O)CNC(=O)[C@H](Cc2ccccc2)NC(=O)[C@H](Cc2ccc(O)cc2)NC(=O)[C@@H]2CSSC[C@H](NC1=O)C(=O)N1CCC[C@H]1C(=O)N[C@@H](CC(=O)O)C(=O)N[C@@H](C(C)C)C(=O)N[C@H](C(=O)N[C@@H](Cc1ccc(O)cc1)C(=O)N[C@H](C(N)=O)C(C)C)CSSC[C@H](NC(=O)[C@H](CCC(N)=O)NC(=O)[C@@H](N)C(C)C)C(=O)N(C)[C@@H](C)C(=O)N[C@@H](Cc1c[nH]cn1)C(=O)N[C@@H](Cc1ccccc1)C(=O)N2) [IGE159] | 0.38 µM
VQCPHFCYFGGAELCPDVCYV (not fully specified (bridges); cysteine pairing not given here) [IGE151] | 0.13 µM
VQCPHFCYELDYELCPDVCYVGR (not fully specified (bridges); cysteine pairing not given here, produced as Z-domain fusion in E. coli and released with trypsin) [IGE156] | 0.03 µM
VQCPHFCYELFSRLCPDVCYV-NH2 (disulfide (positions not given here); also: two disulfides, pairing not settled) [IGE182] | 0.08 µM
Ac-VQCPHFCYFGAELCPDVCYV-NH2 (disulfide 7-14, 3-18; SMILES CC(=O)N[C@H](C(=O)N[C@@H](CCC(N)=O)C(=O)N[C@H]1CSSC[C@@H](C(=O)N[C@@H](Cc2ccc(O)cc2)C(=O)N[C@H](C(N)=O)C(C)C)NC(=O)[C@H](C(C)C)NC(=O)[C@H](CC(=O)O)NC(=O)[C@@H]2CCCN2C(=O)[C@@H]2CSSC[C@H](NC(=O)[C@H](Cc3ccccc3)NC(=O)[C@H](Cc3c[nH]cn3)NC(=O)[C@@H]3CCCN3C1=O)C(=O)N[C@@H](Cc1ccc(O)cc1)C(=O)N[C@@H](Cc1ccccc1)C(=O)NCC(=O)N[C@@H](C)C(=O)N[C@@H](CCC(=O)O)C(=O)N[C@@H](CC(C)C)C(=O)N2)C(C)C) [IGE168] | 0.26 µM
VQCPHFCYVGEALCPDVCYV-NH2 (disulfide 7-14, 3-18; N-terminus assumed; SMILES CC(C)C[C@@H]1NC(=O)[C@H](C)NC(=O)[C@H](CCC(=O)O)NC(=O)CNC(=O)[C@H](C(C)C)NC(=O)[C@H](Cc2ccc(O)cc2)NC(=O)[C@@H]2CSSC[C@H](NC1=O)C(=O)N1CCC[C@H]1C(=O)N[C@@H](CC(=O)O)C(=O)N[C@@H](C(C)C)C(=O)N[C@H](C(=O)N[C@@H](Cc1ccc(O)cc1)C(=O)N[C@H](C(N)=O)C(C)C)CSSC[C@H](NC(=O)[C@H](CCC(N)=O)NC(=O)[C@@H](N)C(C)C)C(=O)N1CCC[C@H]1C(=O)N[C@@H](Cc1c[nH]cn1)C(=O)N[C@@H](Cc1ccccc1)C(=O)N2) [IGE146] | 0.89 µM
VQCPHFCYDASRLCPDVCYV-NH2 (disulfide (positions not given here); not fully specified (bridges); printed as VQCPHFCYDASRLCPDVCYV-nh2) [IGE183] | 0.03 µM
VQCPHFCYDASELCPDVCYV-NH2 (disulfide (positions not given here); not fully specified (bridges); printed as VQCPHFCYDASELCPDVCYV-nh2) [IGE196] | 0.09 µM
VQCPHFCYFGGAEL[hCys]PDVCYV-NH2 (disulfide (positions not given here)) [IGE164] | 40.7 µM
VQCPHFCYELDYELCPDVCY-NH2 (not fully specified (bridges); cysteine pairing not given here) [IGE153] | 0.049 µM
VQCPHF[hCys]YFGGAELCPDVCYV-NH2 (disulfide 7-15, 3-19) [IGE166] | 65 µM
Ac-CPHFCYFGAELCPDVCY-NH2 (not fully specified (bridges); cysteine pairing not given here) [IGE171] | 0.29 µM
QCPHFCYELDYELCPDVCY-NH2 (not fully specified (bridges); cysteine pairing not given here) [IGE157] | 0.107 µM
CPHFCYFGAELCPDVCY-NH2 (not fully specified (bridges); cysteine pairing not given here) [IGE170] | 0.2 µM
VQC[dPip]HFCYFGGAELCPDVCYV-NH2 (disulfide 7-15, 3-19) [IGE162-1] | 4.09 µM
VQCPHFCYFGAELCPDVCYV-NH2 (disulfide 7-14, 3-18; N-terminus assumed; SMILES CC(C)C[C@@H]1NC(=O)[C@H](CCC(=O)O)NC(=O)[C@H](C)NC(=O)CNC(=O)[C@H](Cc2ccccc2)NC(=O)[C@H](Cc2ccc(O)cc2)NC(=O)[C@@H]2CSSC[C@H](NC1=O)C(=O)N1CCC[C@H]1C(=O)N[C@@H](CC(=O)O)C(=O)N[C@@H](C(C)C)C(=O)N[C@H](C(=O)N[C@@H](Cc1ccc(O)cc1)C(=O)N[C@H](C(N)=O)C(C)C)CSSC[C@H](NC(=O)[C@H](CCC(N)=O)NC(=O)[C@@H](N)C(C)C)C(=O)N1CCC[C@H]1C(=O)N[C@@H](Cc1c[nH]cn1)C(=O)N[C@@H](Cc1ccccc1)C(=O)N2) [IGE167] | 0.12 µM
VQCPHFCYFGAELCPDVCYV (disulfide 7-14, 3-18) [IGE152] | 0.052 µM
VQCPHFCYFGAELCPAVCYV-NH2 (disulfide 7-14, 3-18; N-terminus assumed; SMILES CC(C)C[C@@H]1NC(=O)[C@H](CCC(=O)O)NC(=O)[C@H](C)NC(=O)CNC(=O)[C@H](Cc2ccccc2)NC(=O)[C@H](Cc2ccc(O)cc2)NC(=O)[C@@H]2CSSC[C@H](NC1=O)C(=O)N1CCC[C@H]1C(=O)N[C@@H](C)C(=O)N[C@@H](C(C)C)C(=O)N[C@H](C(=O)N[C@@H](Cc1ccc(O)cc1)C(=O)N[C@H](C(N)=O)C(C)C)CSSC[C@H](NC(=O)[C@H](CCC(N)=O)NC(=O)[C@@H](N)C(C)C)C(=O)N1CCC[C@H]1C(=O)N[C@@H](Cc1c[nH]cn1)C(=O)N[C@@H](Cc1ccccc1)C(=O)N2) [IGE169] | 0.128 µM
